From patent publication US20260201008A1, “SECRETIN-DERIVED GLP1R SELECTIVE AGONISTS” (GUBRA A/S, priority 2023, published 2026) come the findings set out here.

Common to all, as to experiment: cell-based or functional assay
The target of assay [1] is T1, human secretin receptor (hSCTR) (human, UniProt P47872 23-440).
Assay [2] has as its target human GLP-1 receptor (hGLP1R) (human, UniProt P43220 24-463).
Assay [3] concerns the target T1, human secretin receptor (hSCTR). The source holds these as a separate data set.

Like-named read-outs stand apart in the source and are kept apart here. Square brackets hold non-standard residues; d marks the D form. Ends that are not written are not given here. Aib = CC(C)(N)C(=O)O

T1 sequence (P47872 23-440): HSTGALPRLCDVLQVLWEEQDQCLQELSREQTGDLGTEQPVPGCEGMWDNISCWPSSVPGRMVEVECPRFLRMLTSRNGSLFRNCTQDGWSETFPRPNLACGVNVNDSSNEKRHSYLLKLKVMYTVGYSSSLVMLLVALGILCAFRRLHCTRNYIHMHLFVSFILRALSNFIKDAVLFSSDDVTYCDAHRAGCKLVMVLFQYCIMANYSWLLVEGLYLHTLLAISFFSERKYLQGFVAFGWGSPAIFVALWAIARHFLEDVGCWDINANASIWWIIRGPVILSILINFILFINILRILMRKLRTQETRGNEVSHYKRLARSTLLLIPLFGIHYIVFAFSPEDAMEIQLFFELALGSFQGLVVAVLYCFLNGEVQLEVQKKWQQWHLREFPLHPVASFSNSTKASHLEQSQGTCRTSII

B1: SEQ ID NO: 227 (peptide)
peptide: H[Aib]EGTFTSDLSVLLEGAALQRFIQWLV-NH2
modifications: N-terminus assumed
SMILES: CC[C@H](C)[C@H](NC(=O)[C@H](Cc1ccccc1)NC(=O)[C@H](CCCNC(=N)N)NC(=O)[C@H](CCC(N)=O)NC(=O)[C@H](CC(C)C)NC(=O)[C@H](C)NC(=O)[C@H](C)NC(=O)CNC(=O)[C@H](CCC(=O)O)NC(=O)[C@H](CC(C)C)NC(=O)[C@H](CC(C)C)NC(=O)[C@@H](NC(=O)[C@H](CO)NC(=O)[C@H](CC(C)C)NC(=O)[C@H](CC(=O)O)NC(=O)[C@H](CO)NC(=O)[C@@H](NC(=O)[C@H](Cc1ccccc1)NC(=O)[C@@H](NC(=O)CNC(=O)[C@H](CCC(=O)O)NC(=O)C(C)(C)NC(=O)[C@@H](N)Cc1c[nH]cn1)[C@@H](C)O)[C@@H](C)O)C(C)C)C(=O)N[C@@H](CCC(N)=O)C(=O)N[C@@H](Cc1c[nH]c2ccccc12)C(=O)N[C@@H](CC(C)C)C(=O)N[C@H](C(N)=O)C(C)C
With B1, the “pEC50 hSCTR” value in assay [1] was 8.9 -log M. The “pEC50 hGLPR1” value in assay [2] is 10.5 -log M.

B2: SEQ ID NO: 217 (peptide)
peptide: H[Aib]EGTFTSDYSRLLEGAALQRFIQWLV-NH2
modifications: N-terminus assumed
SMILES: CC[C@H](C)[C@H](NC(=O)[C@H](Cc1ccccc1)NC(=O)[C@H](CCCNC(=N)N)NC(=O)[C@H](CCC(N)=O)NC(=O)[C@H](CC(C)C)NC(=O)[C@H](C)NC(=O)[C@H](C)NC(=O)CNC(=O)[C@H](CCC(=O)O)NC(=O)[C@H](CC(C)C)NC(=O)[C@H](CC(C)C)NC(=O)[C@H](CCCNC(=N)N)NC(=O)[C@H](CO)NC(=O)[C@H](Cc1ccc(O)cc1)NC(=O)[C@H](CC(=O)O)NC(=O)[C@H](CO)NC(=O)[C@@H](NC(=O)[C@H](Cc1ccccc1)NC(=O)[C@@H](NC(=O)CNC(=O)[C@H](CCC(=O)O)NC(=O)C(C)(C)NC(=O)[C@@H](N)Cc1c[nH]cn1)[C@@H](C)O)[C@@H](C)O)C(=O)N[C@@H](CCC(N)=O)C(=O)N[C@@H](Cc1c[nH]c2ccccc12)C(=O)N[C@@H](CC(C)C)C(=O)N[C@H](C(N)=O)C(C)C
Turning to B2, the “pEC50 hSCTR” value in assay [3] is 8.8 -log M.

B3: SEQ ID NO: 226 (peptide)
peptide: H[Aib]EGTFTSDLSGLLEGAALQRFIQWLV-NH2
modifications: N-terminus assumed
SMILES: CC[C@H](C)[C@H](NC(=O)[C@H](Cc1ccccc1)NC(=O)[C@H](CCCNC(=N)N)NC(=O)[C@H](CCC(N)=O)NC(=O)[C@H](CC(C)C)NC(=O)[C@H](C)NC(=O)[C@H](C)NC(=O)CNC(=O)[C@H](CCC(=O)O)NC(=O)[C@H](CC(C)C)NC(=O)[C@H](CC(C)C)NC(=O)CNC(=O)[C@H](CO)NC(=O)[C@H](CC(C)C)NC(=O)[C@H](CC(=O)O)NC(=O)[C@H](CO)NC(=O)[C@@H](NC(=O)[C@H](Cc1ccccc1)NC(=O)[C@@H](NC(=O)CNC(=O)[C@H](CCC(=O)O)NC(=O)C(C)(C)NC(=O)[C@@H](N)Cc1c[nH]cn1)[C@@H](C)O)[C@@H](C)O)C(=O)N[C@@H](CCC(N)=O)C(=O)N[C@@H](Cc1c[nH]c2ccccc12)C(=O)N[C@@H](CC(C)C)C(=O)N[C@H](C(N)=O)C(C)C
As for B3, the “pEC50 hSCTR” value in assay [1] is 8.3 -log M. Besides, in assay [2], the “pEC50 hGLPR1” value was 10.5 -log M.

B4: SEQ ID NO: 219 (peptide)
peptide: H[Aib]EGTFTSDWSRLLEGAALQRFIQWLV-NH2
modifications: N-terminus assumed
SMILES: CC[C@H](C)[C@H](NC(=O)[C@H](Cc1ccccc1)NC(=O)[C@H](CCCNC(=N)N)NC(=O)[C@H](CCC(N)=O)NC(=O)[C@H](CC(C)C)NC(=O)[C@H](C)NC(=O)[C@H](C)NC(=O)CNC(=O)[C@H](CCC(=O)O)NC(=O)[C@H](CC(C)C)NC(=O)[C@H](CC(C)C)NC(=O)[C@H](CCCNC(=N)N)NC(=O)[C@H](CO)NC(=O)[C@H](Cc1c[nH]c2ccccc12)NC(=O)[C@H](CC(=O)O)NC(=O)[C@H](CO)NC(=O)[C@@H](NC(=O)[C@H](Cc1ccccc1)NC(=O)[C@@H](NC(=O)CNC(=O)[C@H](CCC(=O)O)NC(=O)C(C)(C)NC(=O)[C@@H](N)Cc1c[nH]cn1)[C@@H](C)O)[C@@H](C)O)C(=O)N[C@@H](CCC(N)=O)C(=O)N[C@@H](Cc1c[nH]c2ccccc12)C(=O)N[C@@H](CC(C)C)C(=O)N[C@H](C(N)=O)C(C)C
As to B4, the “pEC50 hSCTR” value in assay [3] is 8.2 -log M.

B5: SEQ ID NO: 224 (peptide)
peptide: H[Aib]EGTFTSDLSELLEGAALQRFIQWLV-NH2
modifications: N-terminus assumed
SMILES: CC[C@H](C)[C@H](NC(=O)[C@H](Cc1ccccc1)NC(=O)[C@H](CCCNC(=N)N)NC(=O)[C@H](CCC(N)=O)NC(=O)[C@H](CC(C)C)NC(=O)[C@H](C)NC(=O)[C@H](C)NC(=O)CNC(=O)[C@H](CCC(=O)O)NC(=O)[C@H](CC(C)C)NC(=O)[C@H](CC(C)C)NC(=O)[C@H](CCC(=O)O)NC(=O)[C@H](CO)NC(=O)[C@H](CC(C)C)NC(=O)[C@H](CC(=O)O)NC(=O)[C@H](CO)NC(=O)[C@@H](NC(=O)[C@H](Cc1ccccc1)NC(=O)[C@@H](NC(=O)CNC(=O)[C@H](CCC(=O)O)NC(=O)C(C)(C)NC(=O)[C@@H](N)Cc1c[nH]cn1)[C@@H](C)O)[C@@H](C)O)C(=O)N[C@@H](CCC(N)=O)C(=O)N[C@@H](Cc1c[nH]c2ccccc12)C(=O)N[C@@H](CC(C)C)C(=O)N[C@H](C(N)=O)C(C)C
On to B5, for which the “pEC50 hSCTR” value in assay [1] is 8.8 -log M. For the same molecule, the “pEC50 hGLPR1” value in assay [2] was 10.9 -log M.

B6: SEQ ID NO: 225 (peptide)
peptide: H[Aib]EGTFTSDLSFLLEGAALQRFIQWLV-NH2
modifications: N-terminus assumed
SMILES: CC[C@H](C)[C@H](NC(=O)[C@H](Cc1ccccc1)NC(=O)[C@H](CCCNC(=N)N)NC(=O)[C@H](CCC(N)=O)NC(=O)[C@H](CC(C)C)NC(=O)[C@H](C)NC(=O)[C@H](C)NC(=O)CNC(=O)[C@H](CCC(=O)O)NC(=O)[C@H](CC(C)C)NC(=O)[C@H](CC(C)C)NC(=O)[C@H](Cc1ccccc1)NC(=O)[C@H](CO)NC(=O)[C@H](CC(C)C)NC(=O)[C@H](CC(=O)O)NC(=O)[C@H](CO)NC(=O)[C@@H](NC(=O)[C@H](Cc1ccccc1)NC(=O)[C@@H](NC(=O)CNC(=O)[C@H](CCC(=O)O)NC(=O)C(C)(C)NC(=O)[C@@H](N)Cc1c[nH]cn1)[C@@H](C)O)[C@@H](C)O)C(=O)N[C@@H](CCC(N)=O)C(=O)N[C@@H](Cc1c[nH]c2ccccc12)C(=O)N[C@@H](CC(C)C)C(=O)N[C@H](C(N)=O)C(C)C
For B6, the “pEC50 hSCTR” value in assay [1] was 8.1 -log M. Besides, in assay [2], the “pEC50 hGLPR1” value is 10.6 -log M.

B7: SEQ ID NO: 228 (peptide)
peptide: H[Aib]EGTFTSDLSWLLEGAALQRFIQWLV-NH2
modifications: N-terminus assumed
SMILES: CC[C@H](C)[C@H](NC(=O)[C@H](Cc1ccccc1)NC(=O)[C@H](CCCNC(=N)N)NC(=O)[C@H](CCC(N)=O)NC(=O)[C@H](CC(C)C)NC(=O)[C@H](C)NC(=O)[C@H](C)NC(=O)CNC(=O)[C@H](CCC(=O)O)NC(=O)[C@H](CC(C)C)NC(=O)[C@H](CC(C)C)NC(=O)[C@H](Cc1c[nH]c2ccccc12)NC(=O)[C@H](CO)NC(=O)[C@H](CC(C)C)NC(=O)[C@H](CC(=O)O)NC(=O)[C@H](CO)NC(=O)[C@@H](NC(=O)[C@H](Cc1ccccc1)NC(=O)[C@@H](NC(=O)CNC(=O)[C@H](CCC(=O)O)NC(=O)C(C)(C)NC(=O)[C@@H](N)Cc1c[nH]cn1)[C@@H](C)O)[C@@H](C)O)C(=O)N[C@@H](CCC(N)=O)C(=O)N[C@@H](Cc1c[nH]c2ccccc12)C(=O)N[C@@H](CC(C)C)C(=O)N[C@H](C(N)=O)C(C)C
As for B7, the “pEC50 hSCTR” value in assay [1] is 9.1 -log M. Further, in assay [2], the “pEC50 hGLPR1” value is 10.8 -log M.

B8: SEQ ID NO: 229 (peptide)
peptide: H[Aib]EGTFTSDLSYLLEGAALQRFIQWLV-NH2
modifications: N-terminus assumed
SMILES: CC[C@H](C)[C@H](NC(=O)[C@H](Cc1ccccc1)NC(=O)[C@H](CCCNC(=N)N)NC(=O)[C@H](CCC(N)=O)NC(=O)[C@H](CC(C)C)NC(=O)[C@H](C)NC(=O)[C@H](C)NC(=O)CNC(=O)[C@H](CCC(=O)O)NC(=O)[C@H](CC(C)C)NC(=O)[C@H](CC(C)C)NC(=O)[C@H](Cc1ccc(O)cc1)NC(=O)[C@H](CO)NC(=O)[C@H](CC(C)C)NC(=O)[C@H](CC(=O)O)NC(=O)[C@H](CO)NC(=O)[C@@H](NC(=O)[C@H](Cc1ccccc1)NC(=O)[C@@H](NC(=O)CNC(=O)[C@H](CCC(=O)O)NC(=O)C(C)(C)NC(=O)[C@@H](N)Cc1c[nH]cn1)[C@@H](C)O)[C@@H](C)O)C(=O)N[C@@H](CCC(N)=O)C(=O)N[C@@H](Cc1c[nH]c2ccccc12)C(=O)N[C@@H](CC(C)C)C(=O)N[C@H](C(N)=O)C(C)C
For B8, in assay [1], the “pEC50 hSCTR” value is 8 -log M. In addition, the “pEC50 hGLPR1” value in assay [2] is 10.8 -log M.
